Experimental data taken from patent US10655124B2, “Proximity based methods for selection of binding partners” (THE SCRIPPS RESEARCH INSTITUTE, priority 2014, dated 2020).

Columns and labels:
[1] = target: glucagon-like peptide 1 receptor (GLP1R) (Homo sapiens, UniProt P43220); assay: Proximity based reaction assay, GLP1R-TEV cleavage site-transcription factor cell line, luciferase reporter; details: for S/N ratio and noise with different TEV cleavage sites: GLP1R (1-426) constructions, Exendin-4 ligand, 1-3 days post infection
glucagon-like peptide 1 receptor (GLP1R) (Homo sapiens, UniProt P43220), sequence (P43220 24-426): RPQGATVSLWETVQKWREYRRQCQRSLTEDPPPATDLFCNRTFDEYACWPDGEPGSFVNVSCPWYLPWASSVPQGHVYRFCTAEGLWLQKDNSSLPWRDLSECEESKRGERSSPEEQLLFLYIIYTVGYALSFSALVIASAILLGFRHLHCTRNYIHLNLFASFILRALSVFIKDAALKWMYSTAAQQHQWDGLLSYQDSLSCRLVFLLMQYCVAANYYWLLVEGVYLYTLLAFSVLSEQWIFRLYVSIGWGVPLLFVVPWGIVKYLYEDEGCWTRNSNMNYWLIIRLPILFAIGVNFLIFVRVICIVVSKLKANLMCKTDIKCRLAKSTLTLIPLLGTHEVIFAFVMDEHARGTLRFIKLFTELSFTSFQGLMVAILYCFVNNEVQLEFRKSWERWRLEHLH

GLP1R = target: T1, GLP1R (Homo sapiens, UniProt P43220); assay: Proximity based reaction assay, GLP1R constructions, tdTomato reporter, fluorescent microscopy; type: cell-based
T1 construct: Four TEV cleavage sites that are cleaved with varying efficiency were used for the GLP1R (1-426) constructions; expressed in transfected cells
T1 sequence (P43220 24-426, species assumed): as the sequence (P43220 24-426) above
Text: Stable cell lines containing the tdTomato reporter gene under control of UAS and GLP1R constructions with different TEV cleavage sites were studied.

CXCR4 = CXCR4 (Homo sapiens, UniProt P61073); assay: Proximity based reaction assay with irrelevant receptor CXCR4 replacing GLP1R; type: cell-based; details: irrelevant G protein-coupled receptor control
CXCR4, sequence (P61073 whole entry, species assumed): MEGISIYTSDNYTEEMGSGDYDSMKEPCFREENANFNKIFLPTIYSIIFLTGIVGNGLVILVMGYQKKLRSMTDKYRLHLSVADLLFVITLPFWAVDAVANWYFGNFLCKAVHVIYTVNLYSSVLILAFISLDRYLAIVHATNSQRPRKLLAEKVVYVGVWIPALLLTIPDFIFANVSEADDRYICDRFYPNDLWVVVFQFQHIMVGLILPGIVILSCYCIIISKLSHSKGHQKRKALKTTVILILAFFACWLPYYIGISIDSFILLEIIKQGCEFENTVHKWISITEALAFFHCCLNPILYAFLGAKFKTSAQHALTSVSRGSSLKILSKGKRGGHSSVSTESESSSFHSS

[2] = system: glucagon-like peptide 1 receptor (GLP1R); assay: Proximity based reaction assay, GLP1R-TEV cleavage site-transcription factor cell line, luciferase reporter; details: orthogonal control for non-specific interactions; membrane displayed ligand
[3] = target: T2, Thrombopoietin receptor (TpoR) (Homo sapiens, UniProt P40238); assay: Proximity based reaction assay, TpoR-TEV cleavage site-transcription factor cell line, luciferase reporter
T2 construct: The coding region of TpoR or GLP1R was followed by the TEV protease cleavage site and the GAL4-VP16 transcription factor; expressed in transfected cells
T2 sequence (P40238 26-635): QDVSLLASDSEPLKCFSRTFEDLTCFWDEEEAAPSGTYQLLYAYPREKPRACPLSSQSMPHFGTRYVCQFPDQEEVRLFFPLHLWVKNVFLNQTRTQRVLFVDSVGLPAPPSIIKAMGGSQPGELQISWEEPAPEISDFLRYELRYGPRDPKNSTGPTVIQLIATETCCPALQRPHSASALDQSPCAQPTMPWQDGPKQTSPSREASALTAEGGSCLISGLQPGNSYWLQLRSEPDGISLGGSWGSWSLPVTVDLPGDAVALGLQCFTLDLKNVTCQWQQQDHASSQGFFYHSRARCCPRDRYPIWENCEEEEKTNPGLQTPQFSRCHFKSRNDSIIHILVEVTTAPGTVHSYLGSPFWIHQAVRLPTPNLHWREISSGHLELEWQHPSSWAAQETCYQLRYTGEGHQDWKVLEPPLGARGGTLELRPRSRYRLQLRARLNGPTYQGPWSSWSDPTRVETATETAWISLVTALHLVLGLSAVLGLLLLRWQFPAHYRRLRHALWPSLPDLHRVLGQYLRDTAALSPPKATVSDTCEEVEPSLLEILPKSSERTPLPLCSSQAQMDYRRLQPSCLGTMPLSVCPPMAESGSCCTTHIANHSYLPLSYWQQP
Text: FIG. 2. Proximity based identification of Thrombopoietin receptor (TpoR) activation. Stable cell lines harboring the luciferase reporter gene under control of UAS and TpoR-TEV cleavage site-transcription factor were established. Cells were transduced with lentivirus encoding Thrombopoietin (TPO) or the TpoR binding antibodies 3D9 or 14F12. Genes encoding different linkers including 3, 5, 6, 8, or 10 copies of (GGGGS) (SEQ ID NO:1) or a human IgG1 Fc were placed between the ligand and PDGFR trans-membrane domain. Luciferase activities were measured 2 days post infection. The cell line harboring GLP1R-TEV cleavage site-Transcription factor was used as negative cell control. The reaction was controlled by measuring the luminescence signals from control lentivirus carrying irrelevant antibodies with the same linker type and length.
The stable cell line harboring both the UAS-reporter gene and receptor-cleavage site-transcription factor was plated in a 96 well plate at 20000 cells per well. Cells were infected by lentivirus carrying the ligand-TM-TEV protease at MOI equal to 1. Cells were cultured for 24-72 h before measuring the reporter gene activity. Luciferase activity was determined by using a luciferase assay system (Promega) while expression of tdTomato was observed by fluorescent microscopy.
A similarly constructed irrelevant antibody was used as a negative control. […]

For ENFYFQS (SEQ ID NO:5) [TEV 2], the “S/N ratio and noise with different TEV cleavage sites” value [1] was “highest S/N ratio” and the “background with different TEV cleavage sites, tdTomato reporter” value (GLP1R) was “much lower background”.

In the case of ENLFFQS (SEQ ID NO:7) [TEV 4], the “S/N ratio and noise with different TEV cleavage sites” value [1] is reported as “very high level of noise”.

In the case of ENLYFQS (SEQ ID NO:4) [TEV1], the “S/N ratio and noise with different TEV cleavage sites” value [1] is reported as “very high level of noise”.

In the case of ENLYYQS (SEQ ID NO:6) [TEV 3], the “background with different TEV cleavage sites, tdTomato reporter” value (GLP1R) is reported as “much lower background”.

For Exendin-4, the “response when CXCR4 replaced the GLP1R” value (CXCR4) was “no response”.

For Thrombopoietin [TPO], the “signal in cells bearing the wrong receptor (GLP1R-transcription factor fusion cell line)” value [2] was “did not increase the signal”, the “transcription factor mediated signal relative to the irrelevant antibody control” value ([3]; ligand displayed at plasma membrane via PDGFR TM-TEV protease, lentivirus, luciferase 2 days post infection) was “increased the transcription factor mediated signal” and the “effect of linker length between ligand and TM domain on proximity-based signal” value ([3]; tandem repeats of GGGGS linker) was “generated similar signals”.

Vc1.1 was tested, and the “signal to noise (S/N) ratio, non-specific peptide control” value [1] was “even lower S/N”.
